Laboratory results published in patent US20130064835A1, “RAGE REGULATES ROCK ACTIVITY IN CARDIOVASCULAR DISEASE” (priority 2009, published 2013).

B1: Tgf-β2: Tgf-β2 (R&D Systems), used as SMC stimulant (protein)
chain: ALDAAYCFRNVQDNCCLRPLYIDFKRDLGWKWIHEPKGYNANFCAGACPYLWSSDTQHTKVLSLYNTINPEASASPCCVSQDLEPLTILYYIGNTPKIEQLSNMIVKSCKCS
B2: S100B: RAGE ligand S100B (protein, UniProt P04271 2-92, looked up)
Protein S100-B: SELEKAMVALIDVFHQYSGREGDKHKLKKSELKELINNELSHFLEEIKEQEVVDKVMETLDNDGDGECDFQEFMAFVAMVTTACHEFFEHE

Key:
[1] = tested on: vascular smooth muscle cells; assay: Smooth muscle cell proliferation assay (tritiated thymidine incorporation); type: cell-based, mice; conditions: for S100B-stimulated SMC proliferation in presence of inhibitor: preincubation with agent (Y27632 10 μM, fasudil 10 μM, anti-Tgf-β2 IgG 10 μg/ml vs IgG control), FIGS. 8C, 8E; for SMC proliferation on incubation with stimulant: FIG. 8A
Procedure: (§1) Wild-type and RAGE null mice vascular smooth muscle cells were isolated and cultured from the aorta and employed through passage 5 to 7. Migration assays were performed using the QCM Colorimetric Cell Migration Assay (Chemicon). Cells (3×10^5/well) were seeded into the upper chambers fitted with a lower 8 μm porous polycarbonate membrane, and the insert was placed in the lower chamber of a 24-well dish containing Dulbeccos' modified Eagle medium and no stimulant, S100B (10 μg/ml; generously provided by Dr. Guenter Fritz), Tgf-β2 (10 ng/ml; R&D Systems), or PDGF (10 ng/ml; R&D Systems) and incubated at 37° C. for 5 hrs and relative migration was measured according to the manufacturer's instructions. In experiments using anti-Tgf-β2 IgG and nonimmune IgG (10 μg/ml, both from Santa Cruz Biotechnology, Santa Cruz, Calif.), Y27632 (10 μM, Sigma Aldrich) and fasudil hydrochloride (10 μM, Tocris Bioscience, Ellisville Mo.) cells were preincubated with these agents or vehicle alone for 2 hrs in the case of antibodies and 30 mins in the case of Y27632 or fasudil at 37° C. prior to the addition to the chemotaxis chambers. Proliferation of cultured SMCs was quantified by measurement of incorporation of tritiated thymidine. SMCs were seeded at a density of 2×10^4 cells/wells in 24-well tissue culture-treated plates and incubated in serum-free DMEM for 16 hrs. Following a 2 hr preincubation with the indicated concentration of anti-Tgf-β2, nonimmune IgG, Y27632 or fasudil, cells were exposed to serum-free DMEM containing the indicated concentration of S100B or PDGF (10 ng/ml) along with 3H-thymidine (1 μCi/well). After the incubation period, cells were harvested 48 hrs later, and cellular proliferation was determined based on the incorporation of tritiated thymidine. Cell counting was performed and confirmed that increased trititated thymidine incorporation reflected an increase in cell number.

[2] = tested on: vascular smooth muscle cells; assay: Smooth muscle cell migration assay (QCM Colorimetric Cell Migration Assay); type: cell-based, mice; conditions: S100B 10 μg/ml; for S100B-stimulated SMC migration in presence of inhibitor: preincubation with agent (Y27632 10 μM, fasudil 10 μM, anti-Tgf-β2 IgG 10 μg/ml vs IgG control), FIGS. 8D, 8F; for SMC migration on incubation with stimulant: Tgf-β2 10 ng/ml, PDGF 10 ng/ml, FIG. 8B
Procedure: as §1

ROCK1 = ROCK1 activity assay (MYPT1 phosphorylation) on lysates of aorta or primary aortic SMCs; type: cell-based, murine; conditions: S100B 10 μg/ml, FIG. 5B
Procedure: Activation of ROCK1 was evaluated on lysates of aorta or primary murine aortic smooth muscle cells retrieved from wild-type or RAGE null mice. In the latter case, SMCs were stimulated with S100B (10 μg/ml for the indicated times and subjected to ROCK1 activity assays (7-8). Aortas or SMCs were lysed using a Triton X-100 lysis buffer containing 50 mM Tris (pH 7.5), 10 mM MgCl2, 0.5 M NaCl and 1% Triton X-100. The samples were incubated with Anti-ROCK1 antibody described above for 1 hr further with Protein G coated agarose beads for overnight at 4° C., and the beads were washed three times with lysis buffer. The amount of ROCK1 associated with the beads was incubated with 50 μl kinase buffer, 1 μl 10 mM ATP (Cell Signalling) and 0.5 μg […] myosin phosphatase-1 (MYPT1)/protein phosphatase-1 regulatory (inhibitor) subunit 12A (Ppplrl2a) substrate (Upstate Biotech) at […] for 30 min. Reaction was stopped by adding sample buffer, boiled for 5 min and the amount of phosphorylated MYPT1 was examined by immunoblotting using ThrB50-phosphorylation specific antibody 36-003 (Upstate Biotechnology). […] Equal quantities of ROCK1 were treated with equal quantities of MYPT1/Ppp1r12a. Relative absorbances were measured as described above, and these were used to determine the relative activation of ROCK1. […]

| Molecule | S100B-stimulated SMC proliferation in presence of inhibitor ([1]; wild-type SMCs) | S100B-stimulated SMC migration in presence of inhibitor ([2]; wild-type SMCs) | SMC proliferation on incubation with stimulant ([1]; RAGE-deficient SMCs) | SMC proliferation on incubation with stimulant ([1]; wild-type SMCs) | SMC migration on incubation with stimulant ([2]; RAGE-deficient SMCs) | SMC migration on incubation with stimulant ([2]; wild-type SMCs) | ROCK1 activity upon incubation with RAGE ligand (ROCK1; SMCs from RAGE null mice) | ROCK1 activity upon incubation with RAGE ligand (ROCK1; primary aortic SMCs from wild-type mice) |
| --- | --- | --- | --- | --- | --- | --- | --- | --- |
| C[C@@H](N)[C@H]1CC[C@H](C(=O)Nc2ccncc2)CC1 [Y27632, reference compound] | significantly reduced | significantly reduced |  |  |  |  |  |  |
| PDGF [reference compound] |  |  | increased | increased | increased | increased |  |  |
| O=S(=O)(c1cccc2cnccc12)N1CCCNCC1 [fasudil, 5-(1,4-diazepane-1-sulfonyl)isoquinoline, reference compound] | significantly reduced | significantly reduced |  |  |  |  |  |  |
| B1 |  |  | increased | increased | increased | increased |  |  |
| B2 |  |  | failed to stimulate | significantly increased | failed to stimulate | significantly increased | failed to increase ROCK1 activity | increased ROCK1 activity |
